Among the data in patent publication US20200024322A1 (Eli Lilly, published 2020) are Ki values, retold here.

Where a chain is given by its changes, count along the chain named. Numbered stars: 1 amine (or outer) side, 2 acyl side, 3 side chain; on linkers, the order of the positions; unused ones are H or OH. Square brackets hold non-standard residues; d marks the D form. Side chains are listed from the residue outwards. Ends that are not written are not given here. * marks the point of attachment. C20 diacid = O=C(O)CCCCCCCCCCCCCCCCCCC(=O)*; αMePhe(2-F) = C[C@](N)(Cc1ccccc1F)C(=O)O; γGlu = O=C(O)[C@H](CCC(=O)[*:2])N[*:1]; αMeL = CC(C)C[C@](C)(N)C(=O)O; AEEA = NCCOCCOCC(=O)O; Aib = CC(C)(N)C(=O)O

Usually Ki stands for a dissociation constant, usually derived from enzyme kinetics or from competition with a known ligand. The low end stands for higher affinity, the high end for lower affinity.

The labels stand for the following.
T1: human GIP receptor (human, UniProt P48546 22-466)
T1 construct: whole, on cells; Used as crude membranes of stably transfected CHO cells; also called hGIPR
T1 sequence (looked up): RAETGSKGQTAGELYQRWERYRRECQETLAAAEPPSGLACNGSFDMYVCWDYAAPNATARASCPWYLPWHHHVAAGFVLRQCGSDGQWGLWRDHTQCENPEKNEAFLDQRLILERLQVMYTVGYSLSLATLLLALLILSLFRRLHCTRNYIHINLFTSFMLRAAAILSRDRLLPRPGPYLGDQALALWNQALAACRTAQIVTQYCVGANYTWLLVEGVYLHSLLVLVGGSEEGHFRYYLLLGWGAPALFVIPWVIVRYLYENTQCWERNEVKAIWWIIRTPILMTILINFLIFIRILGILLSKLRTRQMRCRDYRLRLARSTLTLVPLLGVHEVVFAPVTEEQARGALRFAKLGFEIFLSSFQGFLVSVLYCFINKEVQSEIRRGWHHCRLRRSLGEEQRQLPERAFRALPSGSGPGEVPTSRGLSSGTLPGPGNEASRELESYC

B1: Example 4 (peptide)
peptide: YXEGTXTSDXSIXLDXKAQXEFIXXLIEGGPSSGAPPPS
modifications: not fully specified; Aib2; αMeF(2F)6; 4Pal10; αMeL13; Orn16; K17((2-[2-(2-Amino-ethoxy)-ethoxy]-acetyl)2-(γ-Glu)-CO-(CH2)16-CO2H); Aib20; D-Glu24; αMeY25; C-terminal NH2
B2: Example 5 (peptide)
peptide: B1 peptide with X10V
modifications: not fully specified; Aib2; αMeF(2F)6; αMeL13; Orn16; K17((2-[2-(2-Amino-ethoxy)-ethoxy]-acetyl)2-(γ-Glu)-CO-(CH2)16-CO2H); Aib20; D-Glu24; αMeY25; C-terminal NH2
B3: Example 154 (peptide)
peptide: Y[Aib]EGT[αMePhe(2-F)]TSDHSI[αMeL]LDEK([AEEA-AEEA-γGlu-C20 diacid])AQ[Aib]EFIEYLIEGGPSSGAPPPS-NH2
modifications: N-terminus assumed
SMILES: CC[C@H](C)[C@H](NC(=O)[C@H](CC(C)C)NC(=O)[C@H](Cc1ccc(O)cc1)NC(=O)[C@H](CCC(=O)O)NC(=O)[C@@H](NC(=O)[C@H](Cc1ccccc1)NC(=O)[C@H](CCC(=O)O)NC(=O)C(C)(C)NC(=O)[C@H](CCC(N)=O)NC(=O)[C@H](C)NC(=O)[C@H](CCCCNC(=O)COCCOCCNC(=O)COCCOCCNC(=O)CC[C@H](NC(=O)CCCCCCCCCCCCCCCCCCC(=O)O)C(=O)O)NC(=O)[C@H](CCC(=O)O)NC(=O)[C@H](CC(=O)O)NC(=O)[C@H](CC(C)C)NC(=O)[C@](C)(CC(C)C)NC(=O)[C@@H](NC(=O)[C@H](CO)NC(=O)[C@H](Cc1c[nH]cn1)NC(=O)[C@H](CC(=O)O)NC(=O)[C@H](CO)NC(=O)[C@@H](NC(=O)[C@](C)(Cc1ccccc1F)NC(=O)[C@@H](NC(=O)CNC(=O)[C@H](CCC(=O)O)NC(=O)C(C)(C)NC(=O)[C@@H](N)Cc1ccc(O)cc1)[C@@H](C)O)[C@@H](C)O)[C@@H](C)CC)[C@@H](C)CC)C(=O)N[C@@H](CCC(=O)O)C(=O)NCC(=O)NCC(=O)N1CCC[C@H]1C(=O)N[C@@H](CO)C(=O)N[C@@H](CO)C(=O)NCC(=O)N[C@@H](C)C(=O)N1CCC[C@H]1C(=O)N1CCC[C@H]1C(=O)N1CCC[C@H]1C(=O)N[C@@H](CO)C(N)=O
B4: Example 163 (peptide)
peptide: HXEGTXTSDYSIXLDEKAQXEFIEYLIEGGPSSGAPPPS
modifications: Aib2; αMeF(2F)6; αMeL13; K17((2-[2-(2-Amino-ethoxy)-ethoxy]-acetyl)2-(γ-Glu)-CO-(CH2)18-CO2H); Aib20; C-terminal NH2
B5: Example 88 (peptide)
peptide: YPEGTFTSDYSILLDKK([AEEA-AEEA-γGlu-C20 diacid])AQ[Aib]AFIEYLIEGGPSSGAPPPS-NH2
modifications: N-terminus assumed
SMILES: CC[C@H](C)[C@H](NC(=O)[C@H](CC(C)C)NC(=O)[C@H](Cc1ccc(O)cc1)NC(=O)[C@H](CCC(=O)O)NC(=O)[C@@H](NC(=O)[C@H](Cc1ccccc1)NC(=O)[C@H](C)NC(=O)C(C)(C)NC(=O)[C@H](CCC(N)=O)NC(=O)[C@H](C)NC(=O)[C@H](CCCCNC(=O)COCCOCCNC(=O)COCCOCCNC(=O)CC[C@H](NC(=O)CCCCCCCCCCCCCCCCCCC(=O)O)C(=O)O)NC(=O)[C@H](CCCCN)NC(=O)[C@H](CC(=O)O)NC(=O)[C@H](CC(C)C)NC(=O)[C@H](CC(C)C)NC(=O)[C@@H](NC(=O)[C@H](CO)NC(=O)[C@H](Cc1ccc(O)cc1)NC(=O)[C@H](CC(=O)O)NC(=O)[C@H](CO)NC(=O)[C@@H](NC(=O)[C@H](Cc1ccccc1)NC(=O)[C@@H](NC(=O)CNC(=O)[C@H](CCC(=O)O)NC(=O)[C@@H]1CCCN1C(=O)[C@@H](N)Cc1ccc(O)cc1)[C@@H](C)O)[C@@H](C)O)[C@@H](C)CC)[C@@H](C)CC)C(=O)N[C@@H](CCC(=O)O)C(=O)NCC(=O)NCC(=O)N1CCC[C@H]1C(=O)N[C@@H](CO)C(=O)N[C@@H](CO)C(=O)NCC(=O)N[C@@H](C)C(=O)N1CCC[C@H]1C(=O)N1CCC[C@H]1C(=O)N1CCC[C@H]1C(=O)N[C@@H](CO)C(N)=O
B6: Example 74 (peptide)
peptide: YXEGTFTSDYSIXLDKKAQXAXIEYLIEGGPSSGAPPPS
modifications: Aib2; αMeL13; K17((2-[2-(2-Amino-ethoxy)-ethoxy]-acetyl)2-(γ-Glu)-CO-(CH2)18-CO2H); Aib20; αMeF22; C-terminal NH2
B7: Example 76 (peptide)
peptide: B6 peptide with F6X
modifications: Aib2; αMeF6 (printed aMeF); αMeL13; K17((2-[2-(2-Amino-ethoxy)-ethoxy]-acetyl)2-(γ-Glu)-CO-(CH2)18-CO2H); Aib20; αMeF22; C-terminal NH2
B8: Example 75 (peptide)
peptide: B6 peptide with X22F, L26X
modifications: Aib2; αMeL13; K17((2-[2-(2-Amino-ethoxy)-ethoxy]-acetyl)2-(γ-Glu)-CO-(CH2)18-CO2H); Aib20; αMeL26; C-terminal NH2
B9: Example 91 (peptide)
peptide: B6 peptide with E3X, X13L, X22F
modifications: Aib2; γ-Glu3; K17((2-[2-(2-Amino-ethoxy)-ethoxy]-acetyl)2-(γ-Glu)-CO-(CH2)18-CO2H); Aib20; C-terminal NH2
B10: Example 83 (peptide)
peptide: B6 peptide with X13L, X22F, E28X
modifications: Aib2; K17((2-[2-(2-Amino-ethoxy)-ethoxy]-acetyl)2-(γ-Glu)-CO-(CH2)18-CO2H); Aib20; D-Glu28; C-terminal NH2
B11: Example 79 (peptide)
peptide: B6 peptide with Y1X, X2A, X13L, X22F
modifications: N-terminal Ac; D-Tyr1; K17((2-[2-(2-Amino-ethoxy)-ethoxy]-acetyl)2-(γ-Glu)-CO-(CH2)18-CO2H); Aib20; C-terminal NH2
B12: Example 78 (peptide)
peptide: B6 peptide with Y1X, X13L, X22F
modifications: D-Tyr1; Aib2; K17((2-[2-(2-Amino-ethoxy)-ethoxy]-acetyl)2-(γ-Glu)-CO-(CH2)18-CO2H); Aib20; C-terminal NH2
B13: Example 81 (peptide)
peptide: B6 peptide with S11X, X13L, X22F
modifications: Aib2; D-Ser11; K17((2-[2-(2-Amino-ethoxy)-ethoxy]-acetyl)2-(γ-Glu)-CO-(CH2)18-CO2H); Aib20; C-terminal NH2
B14: Example 89 (peptide)
peptide: B6 peptide with E3X, X13L, X22F
modifications: Aib2; Aad3; K17((2-[2-(2-Amino-ethoxy)-ethoxy]-acetyl)2-(γ-Glu)-CO-(CH2)18-CO2H); Aib20; C-terminal NH2

One experiment deals with T2, human glucagon receptor (human, UniProt P47871 26-477).
T2 construct: whole, on cells; Used as crude membranes of stably transfected HEK293 cells; also called hGcgR; hGLcgR
T2 sequence (P47871 26-477): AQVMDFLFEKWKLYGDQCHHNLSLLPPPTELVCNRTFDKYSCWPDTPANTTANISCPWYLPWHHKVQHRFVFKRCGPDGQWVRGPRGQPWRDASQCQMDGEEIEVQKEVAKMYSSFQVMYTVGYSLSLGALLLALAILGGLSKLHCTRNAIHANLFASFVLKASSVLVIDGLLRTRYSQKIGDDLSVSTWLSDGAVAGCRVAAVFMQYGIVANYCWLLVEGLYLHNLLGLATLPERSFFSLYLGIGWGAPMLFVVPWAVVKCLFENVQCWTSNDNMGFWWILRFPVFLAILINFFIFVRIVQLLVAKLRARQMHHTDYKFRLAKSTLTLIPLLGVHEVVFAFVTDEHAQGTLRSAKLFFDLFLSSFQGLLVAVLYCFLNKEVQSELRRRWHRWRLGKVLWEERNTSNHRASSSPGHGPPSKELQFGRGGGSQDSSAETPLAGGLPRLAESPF
Nature of the experiment: SPA, [125I]-Gcg displacement, hGcgR membranes.
B1 registered an inhibition constant Ki of 686 nM.
On the same count and under the same terms, under B2 stands 519 nM.
In turn, B3 returned a Ki of 762 nM.
In the case of B4, the Ki worked out at 117 nM.
Molecule B5 gave a Ki of 545 nM.
In turn, B6 yielded a Ki of 69.8 nM.
Still for that read-out and setting: the figure for B7 is 14.4 nM; for B8 it is 283 nM; for B9 it is 540 nM.
Take B10: the Ki turned out to be 320 nM.
As for B11, the Ki amounted to 429 nM.
Turning to B12, the affinity corresponds to a Ki of 215 nM.
Same read-out and setting: under B13 stands 344 nM; under B14, 324 nM.

For the next experiment, the target named is T1, human GIP receptor. In words: SPA, [125I]-GIP displacement, hGIPR membranes.
Take B1: affinity was put at a Ki of 0.0528 nM.
Still for that read-out and setting: the figure for B2 is 0.0611 nM; for B3 it is 0.061 nM; for B4 it is 0.116 nM.
On the same count and under the same terms, under B5 stands 0.0717 nM.
In turn, B6 yielded a Ki of 0.0279 nM.
On the same count and under the same terms, the figure for B7 is 0.0659 nM; for B8 it is 0.103 nM.
As for B9, the Ki was 1.8 nM.
Same read-out and setting: under B10 stands 0.142 nM.
The same measure, in the same setting: under B11 stands 0.0313 nM; under B12, 0.163 nM.
B13 gave an inhibition constant (Ki) of 0.198 nM.
Regarding B14, the Ki stood at 0.045 nM.

For a further experiment, the target named is T3, human GLP-1 receptor (human, UniProt P43220 24-463).
T3 construct: whole, on cells; Used as crude membranes of stably transfected HEK293 cells; also called hGLP1R; hGLP-1R
In words: SPA, [125I]-GLP-1 displacement, hGLP-1R membranes.
B1 yielded a Ki of 1.63 nM.
B2 came in with a Ki of 0.902 nM.
In turn, B3 yielded a Ki of 5.64 nM.
On the same count and under the same terms, under B4 stands 10.8 nM; under B5, 4.24 nM; under B6, 5.99 nM.
With B7, the affinity corresponds to a Ki of 2.64 nM.
For B8, the affinity, expressed as Ki, was 24.4 nM.
Take B9: the Ki was found to be 5.23 nM.
In the case of B10, the affinity, expressed as Ki, was 7.1 nM.
The molecule B11 gave an inhibition constant Ki of 2.69 nM.
B12 showed a Ki of 3.94 nM.
Still for that read-out and setting: under B13 stands 2.88 nM.
Molecule B14 showed a Ki of 2.64 nM.
